# Results from the supplement of paper PMC10567573.
# Assay: protein stability index of a GFP-peptide fusion (GPS, HEK-293T) (PSI 1-6); higher = more stable
# 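Further: lentivirally expressed fusions sorted by FACS into six bins by GFP to DsRed ratio, PSI derived from sequencing read proportions per bin multiplied by bin number.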
protein,measurement,setting,value
FQSISLRKIQFNFPYFRSDRDKRD,protein stability index,"parent: IOH52910_37, c terminus: a fixed tail appended",1.87
PRGRAHLLPNPYQQDFLGLPEELR,protein stability index,"parent: IOH58746_12, c terminus: a fixed tail appended",3.93
FCASTRLPPTPLLLFPEEEATNGR,protein stability index,"parent: IOH56238_25, c terminus: a fixed tail appended",2.88
YVHHQALLDVKNIAHQNKFGEDMP,protein stability index,"parent: IOH53646_199, c terminus: a fixed tail appended",2
WLYCYDPVMDVWARKQDMNTKRAI,protein stability index,"parent: IOH52486_82, c terminus: a fixed tail appended",1.93
FVAENSSLHPESGQENDATSPHFS [CD69 WT],protein stability index,"parent: IOH57037_2, c terminus: a fixed tail appended",2.9
FHGTRQYKFDPKTKRILTLQKANS,protein stability index,"parent: IOH59103_74, c terminus: a fixed tail appended",1.72
FSTDAFSSPPQGASPVPESSLTAD,protein stability index,"parent: IOH52952_99, c terminus: a fixed tail appended",3.2
FVRGDHRDNSPFDGPGGNLAHAFQ,protein stability index,"parent: IOH59103_28, c terminus: a fixed tail appended",1.98
VGEIVGIITRHNLTYEFLQARLRQ,protein stability index,"parent: IOH52910_141, c terminus: a fixed tail appended",2.41
FAAPSPATTASPAKVDSSGVIDLF,protein stability index,"parent: IOH52952_104, c terminus: a fixed tail appended",2.35
EGLLRFSSWPFSIQDVVQPLTLQV,protein stability index,"parent: IOH56238_29, c terminus: a fixed tail appended",2.09
WIHCFEGVTAIIFCVALSDYDLVL [GNAI1 WT],protein stability index,"parent: IOH55111_36, c terminus: a fixed tail appended",2.97
LNFQIEHHLFPTMPRHNYHKVAPL [FADS1 WT],protein stability index,"parent: IOH55275_64, c terminus: a fixed tail appended",2.38
MFFKDRFYMRTNPFYPEVELNFIS,protein stability index,"parent: IOH59103_50, c terminus: a fixed tail appended",2.27
FATASAAVPVSTSKPSSDLLDLQP,protein stability index,"parent: IOH52952_56, c terminus: a fixed tail appended",3.71
ILRSQLVTLLVRGVCYSESQSSAS,protein stability index,"parent: IOH52910_125, c terminus: a fixed tail appended",2.67
RQHHHQSSFPGSLPQETNLTLKVC,protein stability index,"parent: IOH57371_7, c terminus: a fixed tail appended",2.86
IVRLHDSISEEGFHYLVFDLVTGG,protein stability index,"parent: IOH54032_13, c terminus: a fixed tail appended",2.65
QEGLLDRCVSFQARFAEKEELMLV,protein stability index,"parent: IOH53646_21, c terminus: a fixed tail appended",1.78
LPQETNLTLKVCKPQAPQKLDPTL,protein stability index,"parent: IOH57371_9, c terminus: a fixed tail appended",3.74
MAGCRGSLCCCCRWCCCCGERETR,protein stability index,"parent: IOH52910_1, c terminus: a fixed tail appended",1.87
YAELGQCSVFPATDAPEQFISQVT,protein stability index,"parent: IOH57150_92, c terminus: a fixed tail appended",2.17
FTQSGPIVSRATGRCLEVEMSKDA [GALNT9 WT],protein stability index,"parent: IOH59749_32, c terminus: a fixed tail appended",2.02
TIIEPAGESDNPLRFTSGLVVALD,protein stability index,"parent: IOH53018_138, c terminus: a fixed tail appended",2.83
SERPLEDLRLRLDHLGWVARGTGS [RTN2 WT],protein stability index,"parent: IOH53506_23, c terminus: a fixed tail appended",2.32
ITQSWQVSVRVQPRGRAHLLPNPY,protein stability index,"parent: IOH58746_10, c terminus: a fixed tail appended",1.87
ISKKFGDMSYSIRHSISMPAMRNS [TPD52L1 WT],protein stability index,"parent: IOH59709_21, c terminus: a fixed tail appended",2.22
HMFTPKLDKMLDPQVWREAATQVF,protein stability index,"parent: IOH55656_48, c terminus: a fixed tail appended",1.92
IRLVDDAFGKICHMVSDGSWVVRV,protein stability index,"parent: IOH53018_47, c terminus: a fixed tail appended",3.03
KAVEEELDAEDRPAWNSKLQYILA,protein stability index,"parent: IOH55656_9, c terminus: a fixed tail appended",2.81
AKQIMEETYKMEFMYSGVENKQVV,protein stability index,"parent: IOH53018_117, c terminus: a fixed tail appended",1.69
NETGYLSSVECYNLETNEWRYVSS,protein stability index,"parent: IOH52486_73, c terminus: a fixed tail appended",2.24
MELLRTITYQPAASTKMCEQALGK,protein stability index,"parent: IOH57150_1, c terminus: a fixed tail appended",2.16
ACAQLATGAACRLVEAVLSGEVLN,protein stability index,"parent: IOH53646_97, c terminus: a fixed tail appended",2.94
YQSFVQFLQYYYQSGCLYRLRALG [TMEM120A WT],protein stability index,"parent: IOH55078_39, c terminus: a fixed tail appended",2.71
ETIQGFWLLTKIDHWNNEKERILL [TPRG1 WT],protein stability index,"parent: IOH59452_16, c terminus: a fixed tail appended",2.09
YTPDLPRADVDHAIEKAFQLWSNV,protein stability index,"parent: IOH59103_21, c terminus: a fixed tail appended",1.83
CAVLDDSIYLVGGYSWSMGAYKSS,protein stability index,"parent: IOH52486_95, c terminus: a fixed tail appended",2.2
RGRHEQSPTSRPRKVSSLPPRSC,protein stability index,"parent: IOH58746_22, c terminus: native",2.58
FGGSFMAPSPSPVTPAQNNLLQPN,protein stability index,"parent: IOH52952_113, c terminus: a fixed tail appended",1.96
KMKTRELHRESSNFDSIYICPSTF,protein stability index,"parent: IOH53646_93, c terminus: a fixed tail appended",2.14
VEKVLRRWVDEEWPKRERGDPSRH [EDARADD WT],protein stability index,"parent: IOH59721_31, c terminus: a fixed tail appended",2.77
DLMETTQYMNEGELRVLADTYDSV,protein stability index,"parent: IOH53646_26, c terminus: a fixed tail appended",2.05
LLKHPNIVRLHDSISEEGFHYLVF,protein stability index,"parent: IOH54032_12, c terminus: a fixed tail appended",2.28
QYMNEGELRVLADTYDSVYLHPNS,protein stability index,"parent: IOH53646_27, c terminus: a fixed tail appended",1.87
AGSRQALSFEVPPCNYDPEKWIQ [MGC16075 WT],protein stability index,"parent: IOH57016_8, c terminus: native",1.84
VKGCSMYVALFPCNECAKLIIQAG [DCTD WT],protein stability index,"parent: IOH54732_19, c terminus: a fixed tail appended",2.63
FAQPMMRPPFGAAAVPGTQLSPSP,protein stability index,"parent: IOH52952_144, c terminus: a fixed tail appended",3.08
EQVFSLGDGVSGGFFGIRDSSFL [ZBED1 WT],protein stability index,"parent: IOH55626_115, c terminus: native",3.38
YHIYVALEEEIERNKESPVFAPVY [HMOX1 WT],protein stability index,"parent: IOH54938_10, c terminus: a fixed tail appended",2.02
TGLVGLFVDFFVRLFTQLKFGVVQ,protein stability index,"parent: IOH52910_16, c terminus: a fixed tail appended",2.3
YSSGEFSSGRKWGDDAPKEEVDTG,protein stability index,"parent: IOH53018_58, c terminus: a fixed tail appended",2.34
